Laboratory results from the RNAGym collection of RNA variant scans (doi:10.7554/elife.80360).

B1: HDV Ribozyme (parent)
chain: GGCCGGCAUGGUCCCAGCCUCCUCGCUGGCGCCGGCUGGGCAACAUUCCGAGGGGACCGUCCCCUCGGUAAUGGCGAAUGGGACCCA

Variants of: B1
Experiment: self-cleavage, relative activity (ratio to wild type); higher = more cleavage; co-transcriptional

Row | Variant | self-cleavage
1 | C13G G40U | 0.104
2 | C13A U72A | 0
3 | C18U C84A | 0.573
4 | U46G | 0.793
5 | U37G C63U | 0.151
6 | A43C U60C | 0.532
7 | C33A G73U | 0.233
8 | U27C C58U | 0.539
9 | G2U C49G | 0.0329
10 | G38A G81C | 0.0712
11 | G28C G35C | 0.0554
12 | G28U C84A | 0.0594
13 | C58U G76U | 1.02
14 | G6U U79C | 0.123
15 | G50U C61G | 0.67
16 | C36U C86U | 0.712
17 | C36G G55C | 0.0314
18 | C24U C30U | 0.142
19 | U12C C41G | 0.289
20 | A56C C58A | 0.923
21 | C63U A77C | 0.352
22 | C21U G34A | 0.0225
23 | G55C U69G | 0.984
24 | C48U A87C | 0.989

Row | Variant | self-cleavage
25 | C33A G59U | 0.338
26 | C32U C48U | 0.69
27 | C30G C33A | 0.0519
28 | G39U G53A | 0.789
29 | C41U C44U | 0.516
30 | U79C A87U | 0.373
31 | U27A C66A | 0.886
32 | G39A G74C | 0.147
33 | C32U C85A | 0.849
34 | A42C C64U | 0.208
35 | C58A A78G | 0.697
36 | U65A A71G | 0.831
37 | U23G G50A | 0.614
38 | U23G A70G | 0.59
39 | U12G G50U | 0.87
40 | G29U C33G | 0.0369
41 | C14A G52A | 0.567
42 | C32A G80A | 0.183
43 | C3G G73A | 0.211
44 | G68U G76A | 0.953
45 | C4U A51C | 0.723
46 | G10U C15A | 0.222
47 | G5C A78C | 0.0615
48 | U47A A70U | 0.697

Row | Variant | self-cleavage
49 | G11U G59A | 0.499
50 | C22A C49G | 0.143
51 | U20A C63A | 0.0504
52 | C7U G76C | 0.815
53 | A51U C86G | 1.21
54 | C18G A42U | 0.138
55 | G76U A77C | 0.295
56 | C61A G74A | 0.561
57 | G35A C84A | 0.62
58 | C36U G59U | 0.806
59 | A8U G81C | 0.115
60 | G54U C66A | 0.796
61 | C19G A71G | 0.158
62 | G5U U65G | 0.475
63 | G2A C62G | 0.086
64 | U12A G34U | 0.142
65 | G11C A51C | 0.35
66 | G53A U72C | 0.731
67 | U47C A56C | 0.831
68 | U20A G55C | 0.0536
69 | G5A G80C | 0.0563
70 | U20C C66G | 0.131
71 | G1U A43C | 0.425
72 | C19A C62A | 0.0536

Row | Variant | self-cleavage
73 | G59C U79C | 0.431
74 | G39U C61G | 0.464
75 | C44A U47A | 0.965
76 | C4U C33G | 0
77 | G25C G73C | 0.0773
78 | C48U A51U | 1.07
79 | U12A A78G | 0.237
80 | C62A C84A | 0.862
81 | G10A G74A | 0.101
82 | C48G G67C | 1
83 | C14G U46A | 0.237
84 | G40C C85U | 0.0804
85 | C19A C41A | 0.0268
86 | C18A U79C | 0.117
87 | G2C G17C | 0.0536
88 | G25A C57A | 0.194
89 | C14U G17U | 0.511
90 | C13A G34C | 0.151
91 | C64A G68U | 0.272
92 | C63U G74A | 0.546
93 | G38C C75G | 0.104
94 | C15G C18G | 0.0594
95 | C63A G67U | 0.451
96 | C44G G73A | 0.522

Row | Variant | self-cleavage
97 | C58A C86A | 1.19
98 | G11C C58U | 0.242
99 | C7G C44G | 0.0755
100 | A70U C75G | 0.231
101 | C3U C4U | 0.655
102 | U47G G80U | 0.163
103 | G52A C64U | 0.992
104 | A43G A51U | 0.646
105 | G1A C3U | 0.297
106 | G10A U12G | 0
107 | C33G C36G | 0.128
108 | U23A C61U | 1.25
109 | C26U C63A | 0.969
110 | G38U G80U | 0.0802
111 | C24U U65G | 0.435
112 | G34C C86U | 0.237
113 | U60C G82C | 0.269
114 | A56G U60C | 1.21
115 | G2U C75G | 0.0256
116 | G35C G76A | 0.514
117 | C49G C61A | 0.848
118 | G31A A45C | 0.262
119 | G67A U69A | 1
120 | G67A U69G | 0.776

Row | Variant | self-cleavage
121 | A43G G53U | 0.577
122 | C63G C84U | 0.629
123 | G17C A43G | 0
124 | C22U G74A | 0.113
125 | G53C C63A | 1.06
126 | G10C U23A | 1.04
127 | C30A U46A | 0.147
128 | C62A U72C | 0.38
129 | G55A U60G | 0.798
130 | C22G C32G | 0
131 | G28C G40C | 0.113
132 | C41G A78G | 0.208
133 | G11A C24A | 0.126
134 | G52U C84A | 0.904
135 | G76U G80U | 0.407
136 | C19A U60A | 0.141
137 | A51G G54A | 0.831
138 | G53U C62U | 1.06
139 | C13G G28U | 0
140 | U27A A71G | 1.07
141 | A8C G29C | 0
142 | A8G C58G | 0.895
143 | A45U C62U | 0.923
144 | A42C A87G | 0.219

Row | Variant | self-cleavage
145 | C7A U37G | 0.246
146 | C44G C86A | 0.767
147 | C22U C41U | 0.656
148 | C57G C66G | 1.08
149 | U60A G68A | 0.917
150 | U20C G80C | 0.106
151 | G35U A43G | 0.185
152 | U47A G67A | 0.897
153 | C41A G53A | 0.967
154 | U12G C30A | 0.332
155 | C41G G74U | 0.47
156 | C62U C66A | 0.815
157 | C13U U37G | 0.138
158 | G6A G73A | 0.256
159 | C48A U79A | 0.974
160 | C32G A77C | 0.0536
161 | C22G A42G | 0
162 | U12C G68U | 0.284
163 | G1C G2A | 0.138
164 | G28A C44U | 0.215
165 | U37A G82C | 0.0405
166 | U23A U46C | 0.929
167 | G67U A71C | 0.892
